Experimental data published in patent publication US9993566B2, “SEZ6 modulators and methods of use” (AbbVie Stemcentrx LLC, priority 2013, dated 2018).

B1: hSC17.17-ADC1 (conjugate)
VL: EIVLTQSPATLSLSPGERATLSCSASSSVSYMHWYQQKPGQAPRLLIYDTSKLPSGIPARFSGSGSGTDFTLTISSLEPEDFAVYYCQQWSSTPPTFGQGTKLEIK
VH: QVQLVQSGAEVKKPGASVKVSCKASGYTFTDYNMHWVRQAPGQGLEWMGEINPNIGGTGYNQKFKGRVTMTRDTSISTAYMELSRLRSDDTAVYYCARTYSYYSYEFAYWGQGTLVTVSS

Key:
LU124OXAHIp2 cells = assay: Oxaliplatin sensitivity, Cell Titer Glo dose response; type: cell-based, human; details: seven days in culture, oxaliplatin-resistant line
Excerpt: (§1) Cisplatin and its derivatives, including oxaliplatin are the chemotherapeutic standard of care for SCLC. An oxaliplatin-resistant SCLC PDX line was developed due to concerns that cisplatin may not be stable in tissue culture medium (Schuldes et al., 1997, PMID: 9128988). The oxaliplatin-resistant SCLC line was generated by isolating human cells from LU124p2, a SCLC PDX line that had been passaged subcutaneously twice through NOD.SCID mice. LU124p2 tumors were resected from mice after reaching 800-2,000 mm^3, dissociated into single cell suspensions using art-recognized enzymatic digestion techniques (see, for example, US2007/0292414), and depleted of murine cells. The cells were then washed and cultured in 5% oxygen and serum-free medium and immediately treated with 1 μM of oxaliplatin. After seven days of exposure to oxaliplatin, the cells were washed and allowed to recover for two weeks in standard serum-free media with fresh renewal of medium twice a week. After the recovery period, the cells were washed and re-plated into a new flask with 1 μM of oxaliplatin for seven more days, followed by a final wash and a two week recovery period. The resulting cell line was termed LU124OXAHIp2. Single cell suspensions were generated using Versene (Invitrogen). Some of the cells were injected into mice to propagate the LU124OXAHIp2 cell line, while other cells were cultured in vitro to test sensitivity to oxaliplatin.
(§2) Oxaliplatin sensitivity of LU124OXAHIp2 was tested as follows: LU124OXAHIp2 cells were plated onto 96-well plates and treated with a titration of oxaliplatin in serum-free medium as is standard in the art. After seven days in culture, cells were harvested using Cell Titer Glo® (Promega) as per the manufacturer's instructions and dose response curves were obtained. […] To determine whether the resistance was stable, LU124OXAHIp2 cells were passaged again through immunocompromised mice to yield the cell line called LU124OXAHIp3.

LU124OXAHIp3 cells = assay: as above; type: cell-based, human; details: after further passage through mice without oxaliplatin
Excerpt: as §1, §2

[1] = test system: LU124p2 parental cell line; assay: as above; type: cell-based, human; details: seven days in culture
Excerpt: as §1, §2

[2] = test system: HEK293 cells overexpressing SEZ6; assay: In vitro cytotoxicity of ADC; type: cell-based, human
Procedure: The final ADC was analyzed for protein concentration (by measuring UV), aggregation (SEC), drug to antibody ratio (DAR) by reverse phase (RP) HPLC, presence of unconjugated antibody by hydrophobic interaction chromatography (HIC) HPLC, non-proteinaceous materials by RP HPLC and in vitro cytotoxicity using a SEZ6 expressing cell line.

LU117 tumor = assay: SCLC NTX tumor volume in immunodeficient mice, humanized ADCs; type: in vivo, human; details: three injections of 1 mg/kg over seven days
Procedure: (§3) The ability of humanized anti-SEZ6 ADCs to reduce SCLC tumor volume was also tested. Anti-SEZ6 ADCs (hSC17.17, hSC17.24, hSC17.34 and hSC17.46), and the human IgG1 isotype control ADC (huIgG1) were administered to immunodeficient mice bearing various patient derived NTX tumors. Mice were given three injections of 1 mg/kg (indicated by the vertical lines in FIGS. 18C and 18D) over a period of seven days. Following treatment, tumor volumes and mouse weights were monitored until tumors exceeded 800 mm^3 or mice became sick. Complete and durable elimination of tumor mass was achieved by the administration of humanized anti-SEZ6 ADCs in four SCLC tumors.

LU64 tumor = assay: as above; type: in vivo, human; details: three injections of 1 mg/kg over seven days
Procedure: as §3

LU80 tumor = assay: as above; type: in vivo, human; details: three injections of 1 mg/kg over seven days
Procedure: as §3

Molecule | IC50 (LU124OXAHIp2 cells) [nM] | resistance to oxaliplatin, LU124OXAHIp3 (LU124OXAHIp3 cells) | IC50 [1] [nM] | IC50 [2] [nM] | tumor volume, LU117 (LU117 tumor) | tumor volume, LU64 (LU64 tumor) | tumor volume, LU80 (LU80 tumor)
O=C1[O][Pt]2([NH][C@@H]3CCCC[C@H]3[NH]2)[O]C1=O [oxaliplatin] | 2000 to 2500 | Resistance was maintained | 36 |  |  |  | 
B1 |  |  |  | 11 | reduction | elimination | reduction
